Data as given in the nanobody polyreactivity screen of Harvey et al. (2022).

Test: yeast display, Sf9 membrane polyspecificity reagent, FACS + sequencing; frameworks hold sequencing errors
How it was run: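 A nanobody's polyreactivity label depends on the gate it was sorted from. Yeast display cells were stained with 10% biotinylated, detergent-solubilized Sf9 membrane reagent for 1 hour at 4 °C, enriched on streptavidin microbeads and sorted by FACS. The low and high (top ~1%) gates were set on anti-HA fluorescence for expression and streptavidin fluorescence for reagent binding.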
For “QVQLVESGGGLVQGGGSLRLSCAASGSISDVYAMGWYRQAPGKERELVAANTSGASTYYADSVKGRFTISRDNAKNTVYLQMNSLKPEDTAVYYCAADSDSQWGMDYWGQGTQVTVSS”, the “polyreactivity (PSR sort gate)” value was “low polyreactivity”.
With “QVQLVESGGGLVQGGGSLRLSCAASGSNLYKNPMGWYRPAPGKERELVASITYSGGRTNYADSVKGRFTISRDTAKNTVYLQMNSLKPEDTSVYYCPAAYVYYNPAYRYAPTAVDYDYWGQGTQVTVSS” the “polyreactivity (PSR sort gate)” value was “low polyreactivity”.
In the case of “QVQLVESGGGLVQGGGSLRLSCAASGSTFWANAMGWYRQATGKERELVAGITWNAGSTYYADSVKGRFTISRDNAKNPVYLQMNRLKPEDTAVFYCAASYHFQGWGPGYNSWGQGTQVTVSS”, the “polyreactivity (PSR sort gate)” value is reported as “low polyreactivity”.
With “QVQLVESGGGLVQGGGSLRLSCASSGSIFGWNAMGWYRPAPGKERELVAAISFSGSCTFYADSVKGRFTISRDNAKNTVYLQMNSLKPEDTAVYDCAAEPYSVYEYYYWGQGTQVTGSS” the “polyreactivity (PSR sort gate)” value was “high polyreactivity”.
In the case of “QVQLVESGGGLVQPGGSLRLSCAASGGTFYRYAMGWYIQAPGKERELVAAISSRGGSTYYADSVKGRYTISRDNAKNTVYLQMNSLKPEDTAVYYCAALFYLTQWQYDYWGQGTQVTVSS”, the “polyreactivity (PSR sort gate)” value is reported as “high polyreactivity”.
For “QVQLVESGGGLVQPGGSLRLSCAASGIISFYNAMGWYRPAPGKERELVAAITWSVGSTYYADSVKGRFTISRDNAKNTVYLQMNSLKPEDTAVYYCNVSPGFWRSIPLYYNLRYGYWGQGTQVTVSS”, the “polyreactivity (PSR sort gate)” value was “low polyreactivity”.
With “QVQLVESGGGLVQPGGSLRLSCAASGLTISYYAMGWYRQAPGKEREFVAAITSRGGDTYYADSVKGRFTISRDNAKNTVYLQMNSLKPEDTAVYYCAVRPRYYGTYRYYYWGQGTQVTVSS” the “polyreactivity (PSR sort gate)” value was “high polyreactivity”.
For “QVQLVESGGGLVQPGGSLRLSCAASGRILYYHAMAWYRQAPGKERELVARISSGGSTNYADSVKGRFTISRDNAKNTVYLQMNSLKPEDTAVSYCAVAKGGLAWGVGRGGRYDYWGQGTQVTVSS”, the “polyreactivity (PSR sort gate)” value was “low polyreactivity”.
With “QVQLVESGGGLVQPGGSLRLSCAASGSIFGYNAMGWYRPAPGKERELVAVITRSDGSTYYADSVKGRFTISRDNAKNTVYLQMNSLKPEDTAVYYCNAETHVYYWGVVIYEYNYWGQGTQVTVSS” the “polyreactivity (PSR sort gate)” value was “low polyreactivity”.
In the case of “QVQLVESGGGLVQPGGSLRLSCAASGSIYTNAMGWYRQAPGKERELVAAISWSGGRTYYADSVKGRFTISRDNAKNTVYFQLNSLKPEDTAVYYCNTRGTRIASGHYYWGQGTQVTVSS”, the “polyreactivity (PSR sort gate)” value is reported as “high polyreactivity”.
With “QVQLVESGGGLVQPGGSLRLSCAASGSTFWLYAMGWYRQAPGQERELVAAISARTGSTYYADSVKGRFTISRDNAKNTVYLQMNSLKPEDTAVYYCNVRYRGTPYGYWGQGTQVTVSS” the “polyreactivity (PSR sort gate)” value was “low polyreactivity”.
In the case of “QVQLVESGGGLVQPGRSLRLSCAASGFTFYIYAMGWYRQAPGKERELVAAISGRGSSTYYADSVKGRFTISRDNAKNSVYLQMNSQTPEDTAVYYCAAGKSKYGVRGDYWGQGTQVTVSS”, the “polyreactivity (PSR sort gate)” value is reported as “high polyreactivity”.
With “QVQLVESGGGLVQPRGSLRLSCAASGGTFKFYAMGWYRQAPGKDRELVAAITSGGSTNYADSVKGRFTISRDNAKNTVYLLMNSLKPEDTALYYCNADFYQRYGVFSSRRYFYWGQGTQVTVSS” the “polyreactivity (PSR sort gate)” value was “low polyreactivity”.
In the case of “QVQLVESGGGLVQPVGSLRLSCAASGYTFPRYTMGWSRQAPGKERELVAAITSSGSTNYADSVKGRFTISRDNAKNTVYLQMNSLKPEDTAVYYCNKARIRTWSRGYDYWGQGTQLTVSS”, the “polyreactivity (PSR sort gate)” value is reported as “high polyreactivity”.
For “QVQLVESGGGLVQSGGSLRLRCAASGRIFGGYAMGWYRQAPGKERELVAAISWRGGSTSYADSVKGRFTISRDNAKNTVYLQMNSLKPEDTAVYYCAKYWGHTYGSWGQGTQVTVSS”, the “polyreactivity (PSR sort gate)” value was “high polyreactivity”.
With “QVQLVESGGGLVQSGGSLRLSCAASGFTFSWYAMGSYRQAPGKERELVAAISWDGDSTYYADSVKGRCTISRDNAKNTVFLQMNSLKPEETAVYYCAADFSYYWDGYDYWGQGSQVTVSS” the “polyreactivity (PSR sort gate)” value was “high polyreactivity”.
In the case of “QVQLVESGGGLVQSGGSLRLSCAASGFTFYFNAMGWYRPAPGKERELVAAIRWSGGNTYYADSVKGRFTISRDNAKNTVYLQMNSLKPEDTAVYYCNKDPWHDTYSVKEYDYWGQGTQVTVSS”, the “polyreactivity (PSR sort gate)” value is reported as “low polyreactivity”.
For “QVQLVESGGGLVQSGGSLRLSCAASGGSFTFYAMGWYRQAPGKERELVATINWSGGSTYYADSVKGRFTISRDNAKNTVYLQMNSLKPEDTAVYYCNAAWPYKSVEYWGQGTQVTVSS”, the “polyreactivity (PSR sort gate)” value was “low polyreactivity”.
In the case of “QVQLVESGGGLVQSGGSLRLSCAASGGTFHKYDMGWYRQAPGKERELVAAITRSGGSTYYADSVKGRFTISRDNAKNTVYLQMNSLKPEDTAVYFCNAGKRGSTYYYWGQGTQVTVSS”, the “polyreactivity (PSR sort gate)” value is reported as “high polyreactivity”.
In the case of “QVQLVESGGGLVQSGGSLRLSCAASGIIFDSYAMGWYRQAPGKERELVAAISSRGASTYYADSVKGRFTISRDNAKYTVYLQMNSLKPEDTAVYYCNAVYYAYRYGSSYDWGQGTQVTVSS”, the “polyreactivity (PSR sort gate)” value is reported as “high polyreactivity”.
With “QVQLVESGGGLVQSGGSLRLSCAASGIIFEYYDMGWYRQAPGKEREFVAAIDSGGSTYYADSVKGRFTISRDNAKNTVYLQMNSLKPEDTAVYYCAASRPPNTSNTGYGSWGQGTQVTVSS” the “polyreactivity (PSR sort gate)” value was “low polyreactivity”.
For “QVQLVESGGGLVQSGGSLRLSCAASGIIFSDYAMGWYRQAPGKERELVATITRSVRTSYADSVKGRFTISRDNAKNTVYLQMNSLKPEDTAVYYCNADVVGAVIAYDYWGQGTQVTVSS”, the “polyreactivity (PSR sort gate)” value was “low polyreactivity”.
In the case of “QVQLVESGGGLVQSGGSLRLSCAASGITFYVYTMGWYRQAPGKERELVAAINGSGGSTNYADSVKGRFTISRDNAKNTVHLQMNSLKPEDTAVYYCAADWSLRLYDYWGQGTQVTVSS”, the “polyreactivity (PSR sort gate)” value is reported as “low polyreactivity”.
With “QVQLVESGGGLVQSGGSLRLSCAASGITSHPYDMGWSRQAPGKERELVAVITSGGSTSYADSVKGRFTISRDNAKNTVYLQMNRLKPEDTAVYYCNADWFTPAQPWYRYFIRYDYWGQGTEVTVSS” the “polyreactivity (PSR sort gate)” value was “low polyreactivity”.
In the case of “QVQLVESGGGLVQSGGSLRLSCAASGRIFKLYAMGWYRQAPGKERELVAAITRTGTSTYYADSVKGRFTISRDNAKNTVYLQMNSLKPEDTAVYYCNKTTLLTVEYDYWGQGTQVTVSS”, the “polyreactivity (PSR sort gate)” value is reported as “low polyreactivity”.
In the case of “QVQLVESGGGLVQSGGSLRLSCAASGRIFYYNAMGWYRQAPGKERELVAAITSSSGSSTYYADSVKGRFTISRDNAKNTVYLQMNSLKPEDTAVYYCNAASLDRFFGYRYNDDDYWGQGTQVTVSS”, the “polyreactivity (PSR sort gate)” value is reported as “low polyreactivity”.
For “QVQLVESGGGLVQSGGSLRLSCAASGRTFLTYVMGWYRPAPGKERELVAAITRGGRTNYAHSEKGRFTISRDNAKNTVDLQMTSLKPEDTAVYYCARDDTPRYDYWGQGTQVTVSS”, the “polyreactivity (PSR sort gate)” value was “low polyreactivity”.
In the case of “QVQLVESGGGLVQSGGSLRLSCAASGSTFDPNTMGSYRQAPGKERELVATITSVDSTNYADSVKGRFTISRDNAMNTVYLQMNSLIPEDTAVYYCNAAYGGVFFYAYDYWGQGTQVTVSS”, the “polyreactivity (PSR sort gate)” value is reported as “low polyreactivity”.
With “QVQLVESGGGLVQSGGSLRLSCAASGSTFKFYAMGWYRQAPGKEREFVAAITSSGDSTYYADSVKGRFTISRDNAKNTVYLQMNSLKPEDTAVYYCAARLRWRYSYDYWGQGTQVTVSS” the “polyreactivity (PSR sort gate)” value was “high polyreactivity”.
For “QVQLVESGGGLVQSGGSLRLSCAASGSTFQSNAMGWYRQAPGKERELVATITQSGATTYYADSVKGRFTISRDNAKNTVYLQMNSLKPEDSAVYYCNVDTYQKRWFWLDLDGGYWGQGTQVTVSS”, the “polyreactivity (PSR sort gate)” value was “low polyreactivity”.
With “QVQLVESGGGLVQSGGSLRLSCAASGSTFSTYAMGWYRQAPGKERQLVAGITGSGGRTYYADSVKGRFTISRDNAKHTVYLQMNSMKPEDTGVYYCAASTRGYKWVGRDYDYWGQGTQVTVSS” the “polyreactivity (PSR sort gate)” value was “high polyreactivity”.
In the case of “QVQLVESGGGLVQSGGSLRLSCAASGSTFVWYAMGWYRQAPGKERELVAAITDSGDDTYYADSVKGRFTISRDNAKNTVYLQMNSLKAEDNAVYYCAVVAWSVPPYDYWGQGTQVTVSS”, the “polyreactivity (PSR sort gate)” value is reported as “low polyreactivity”.
With “QVQLVESGGGLVQSGGSLRLSCAASGSTIPPNAMGWYRQAPGKERELVAGISYGGSTTYADSVKGRFTISRDNAKNTVYLQMNSLKPEDTAVYYCAADQPYWRDYDYWGQGTQVTVSS” the “polyreactivity (PSR sort gate)” value was “low polyreactivity”.
For “QVQLVESGGGLVQSGGSLRLSCGASGLIYGPNSMGWYRQAPAKERELVAAITKSGDSTYYADSVKGRFTISRDNAKNTVYLQMNSLKPEDTAVYYCAAEWYPYPWGYGYWGQGTQVTVSS”, the “polyreactivity (PSR sort gate)” value was “low polyreactivity”.
For “QVQLVESGGGLVQSGVSLRLSCAASGITFYSIAIGWYRPATGKEMELVAANTRRGGSKLNADSVKGRFTNSRDNSKNTVYLQMNSLKPEDTAVYFCAADVPWWSYSDDYWGQGTKVTVSS”, the “polyreactivity (PSR sort gate)” value was “high polyreactivity”.
With “QVQLVESGGGLVQSGVSLRLSCAASGSIFDPYAMGWYRPAPGKERELVAAITSGGSTYYADSVKGRFTISRDNAKNTVYLQMNSLKPEDTAVYYCAKDFDIYYSKYDYWGQGTQVTVSS” the “polyreactivity (PSR sort gate)” value was “low polyreactivity”.
For “QVQLVESGGGLVQSVGSLRLSCAASGFTFRWYAMGWYRQAPGKERELVAAITSRGGTTYYADSVKGRFTISRDNAKNTVYLQMNSLNPEDTAVYYCAARRAGRRGYYYWGQGTQVTVSS”, the “polyreactivity (PSR sort gate)” value was “high polyreactivity”.
With “QVQLVESGGGLVQTGGSLRLSCAASGFIFGPYVMGWYRQAPRKERELFAAISSDGSTTYADSVKGRFTISRDNEKNTVYLQMNSLKPEDTAVYYFAAEDQQNGYDYWGQGTQVTVSS” the “polyreactivity (PSR sort gate)” value was “low polyreactivity”.
For “QVQLVESGGGLVQTGGSLRLSCAASGRIFNGNAMGWYRQAPGKERELVAAITKSGGNTYYADSVKGRFTISRDNAKNTVYLEMNSLKQEDTAVYYCNAYYSLGAWKGAYDYWGQGTQVTVSS”, the “polyreactivity (PSR sort gate)” value was “low polyreactivity”.
In the case of “QVQLVESGGGLVQTGGSLRLSCAASGSTFNQYDMGWYRQAPGKERELVAAINRDGSTYYADSVKGRFTISRDNAKNTVYLQMNSLNPEDTAVYYWNAVGWYTYFYGSRKYNSWGQGTEVTVSS”, the “polyreactivity (PSR sort gate)” value is reported as “low polyreactivity”.
With “QVQLVESGGGLVQVGGSLRLSCAASGITFSYYSMGWYRPAPGKERELVAAISQRGGSTYYADSVKGRFTISRDNAKNTVYLQMNSLKPEDTAVYYCAAAYRGANYGYGFDYWGQGTQVTVSS” the “polyreactivity (PSR sort gate)” value was “high polyreactivity”.
With “QVQLVESGGGLVQVGGSLRLSCAASGSIFAINAMGWYRQAPGKERELVAAIRRRDGNTYYADSVKGRFTISRDNAKNTVYLQMNSLKPEDTAVYYCNTYSRRTSVIAYRYNYWGQGTQVTVSS” the “polyreactivity (PSR sort gate)” value was “high polyreactivity”.
For “QVQLVESGGGLVQVGGSLRLSCAASGSIFVENAMGWYRQAPGKERELVAAITSGGSTNYADSVKGRFTISRDNAKNTVYLQMNSLKPEDTAVYYCNADENYGYYTHFGYWGQGTQVTVSS”, the “polyreactivity (PSR sort gate)” value was “low polyreactivity”.
